Source: the supplement of paper PMC9942255
Where “and” joins values, the source holds several entries; their conditions need not be identical. Equal values may be shown once.

Test system: Bacillus subtilis DB104 (SP-AmyQ fusion secretion)
Assay: AmyQ secretion efficiency, weighted average sort bin (1 = best secretion, 10 = worst) (bin number (weighted average, 1-10)); higher = lower secretion efficiency
Procedure, shortened: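 Designed signal peptides were fused to mature AmyQ and expressed from the amyE locus in B. subtilis DB104, and this library was loaded at about 0.3 cells per ~65 nL alginate bead together with fluorescein-starch. After about 13 h of growth at room temperature and nile red staining, occupied beads were split into 10 equally populated bins by green/red fluorescence ratio using large-particle flow cytometry. Amplicons from every bin were Illumina-sequenced. The secretion score is the average bin number weighted by read frequency and normalised to beads per bin, excluding low-abundance sequences.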

Sequence | AmyQ secretion efficiency
MHLIRAAGAVCLAVVLIAGCRFNEDQHQAEGENT | 5.94 and 6.42
MHLIRAAGAVCLAVVLIAGCRFNEDQHQAEGRRR | 5.26
MHLIRAAGAVCLAVVLIAGCRFNEDQHQAEHENT | 3.89
MHLIRAAGAVCLAVVLIAGCRFNEDQHQAELENT | 6.53
MHLIRAAGAVCLAVVLIAGCRFNEDQHQAEMENT | 6.08
MHLIRAAGAVCLAVVLIAGCRFNEDQHQAENENT | 5.95
MHLIRAAGAVCLAVVLIAGCRFNEDQHQAEPENT | 6.25
MHLIRAAGAVCLAVVLIAGCRFNEDQHQAESENT | 3.48
MHLIRAAGAVCLAVVLIAGCRFNEDQHQAEWENT | 6.12
MHLIRAAGAVCLAVVLIAGCRFNEDQHQFEGENT | 5.53
MHLIRAAGAVCLAVVLIAGCRFNEDQHQFFAEGENT | 4.63
MHLIRAAGAVCLAVVLIAGCRFNEDQHQGEGENT | 6.63
MHLIRAAGAVCLAVVLIAGCRFNEDQHQLEGENT | 6.09
MHLIRAAGAVCLAVVLIAGCRFNEDQHQPEGENT | 5.35
MHLIRAAGAVCLAVVLIAGCRFNEDQHQVEGENT | 4.66
MHLIRAAGAVCLAVVLIAGCRFNEDQHQWEGENT | 5.73
MHLIRAAGAVCLAVVLIAGCRITSIFFNEDQHQAEGENT | 6.96
MHLIRAAGAVCLAVVLIAGCRKKKRKRHRAEGENT | 7.2
MHLIRAAGAVCLAVVLIAGCRKNSVQHQAEGENT | 5.67
MHLIRAAGAVCLAVVLIAGCRKRRRQHQAEGENT | 6.76
MHLIRAAGAVCLAVVLIRFNEDQHQAEGENT | 5.07

Sequence | AmyQ secretion efficiency
MHLIRAKGAVCLAVVLIAGCRFNEDQHQAEGENT | 6.02
MHLIRAKKRKCRAVVLIAGCRFNEDQHQAEGENT | 5.77
MHLIRARRRVCLAVVLIAGCRFNEDQHQAEGENT | 6.03
MHLIRQSQGYCQYTVLIAGCRFNEDQHQAEGENT | 6.47
MHLITAAGAVCLAVVLIAGCRFNEDQHQAEGENT | 5.34
MHQIRAAGAVCLAVVLIAGCRFNEDQHQAEGENT | 6.4
MHRRRKAAGAVCLAVVLIAGCRFNEDQHQAEGENT | 4.73
MIAYFGKCGYKYGRTRLGVLFGMQQANHG | 8.61
MIAYFGKCLLLVTIMFLGVLFGMFATQQANHG | 6.56
MIAYFGKCLLLVTIMFLGVLFGMFQANHG | 6.57
MIAYFGKCLLLVTIMFLGVLFGMHQANHG | 6.41
MIAYFGKCLLLVTIMFLGVLFGMPQANHG | 5
MIAYFGKCLLLVTIMFLGVLFGMQQANHG | 6.54 and 6.99 and 8.58
MIAYFGKCLLLVTIMFLGVLFGMQQGNHG | 5.32
MIAYFGKCLLLVTIMFLGVLFGMQQMNHG | 5.05
MIAYFGKCLLLVTIMFLGVLFGMQQVNHG | 6.78
MIAYFGKCLLLVTIMFLGVLFGMQQYNHG | 6.5
MIAYFGKCLLLVTIMFLGVLFGMSQANHG | 4.69
MIAYFGKCLLLVTIMFLGVLFGMWQANHG | 7.19
MIAYFGKCLLLVTIMFLGVLFTAVVVIAGMQQANHG | 5.06
MIAYFGKCLLLVTIMFLGVLFVMQQANHG | 7.39

Sequence | AmyQ secretion efficiency
MIAYFGKCLLLVTIMFLGVLGMQQANHG | 5.4
MIAYFGKCRKRRKRMFLGVLFGMQQANHG | 7.55
MIAYFGKCRKRRTIMFLGVLFGMQQANHG | 4.01
MIAYFGKCRKTRTIMFLGVLFGMQQANHG | 3.14
MIAYFKCLLLVTIMFLGVLFGMQQANHG | 6.01
MIFTIVVGFLSVLGLAAVFPLTAQAEKA | 2.34
MIIWIYVVLVLSIAGIGGFSVHAASS | 7.11
MIKAAAVLLSLGLVFGFSYGAGHVAEAKTK | 2.3
MIKGIIRFLLVSFVLFFALSTGITGVQAAPA | 2.2
MIKKCSVCLWILVLLLSCLSGKSAYAATS | 2.24
MIKKLAAGLTASAIVGTTLVVTPAEAATI | 2.3
MIKLVLCVSILAVILSGVALTQLS | 7.36
MIKRFSLIMMTGLLFGLTSPAFAAEK | 4.15
MIKVLMAFIICLSLILSVLAAPPSGAKAESV | 1.52
MILANSVSALTPSTTLAITAKAKEL | 8.58
MILITINIITMFIAAAVISLTGTAEAAEK | 4.83
MILKSKLLLSCLALSTVFVATTIANAPTH | 6.38
MILRKVLTGSVLSLGLLVSASPAFATSP | 1.73
MILTKVLTGSVLSLGLLVSASPAFATSP | 1.75
MIMLWRSLALCGLALTLAPCAQAAEP | 4.91
